The text below walks through data of patent US20230310650A1.

The experiment concerns the target human extracellular signal-regulated kinase 1/2 (Erk) (human) (UniProt P27361). The experiment can be described thus: cell-based or functional assay.
Chain of UniProt P27361 (P27361 2-379 limits assumed, chain 1 of 2): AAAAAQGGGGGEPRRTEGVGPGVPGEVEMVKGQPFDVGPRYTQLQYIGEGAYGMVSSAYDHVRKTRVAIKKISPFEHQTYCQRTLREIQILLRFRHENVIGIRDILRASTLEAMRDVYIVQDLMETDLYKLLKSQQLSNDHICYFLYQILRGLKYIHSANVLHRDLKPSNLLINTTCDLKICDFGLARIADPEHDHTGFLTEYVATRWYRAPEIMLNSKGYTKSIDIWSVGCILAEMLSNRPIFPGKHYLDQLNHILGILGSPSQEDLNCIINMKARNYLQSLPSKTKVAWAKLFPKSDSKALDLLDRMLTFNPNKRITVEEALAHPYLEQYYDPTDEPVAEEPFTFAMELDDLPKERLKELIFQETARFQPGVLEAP
Chain of UniProt P27361 (P28482 2-360 limits assumed, chain 2 of 2, further chain): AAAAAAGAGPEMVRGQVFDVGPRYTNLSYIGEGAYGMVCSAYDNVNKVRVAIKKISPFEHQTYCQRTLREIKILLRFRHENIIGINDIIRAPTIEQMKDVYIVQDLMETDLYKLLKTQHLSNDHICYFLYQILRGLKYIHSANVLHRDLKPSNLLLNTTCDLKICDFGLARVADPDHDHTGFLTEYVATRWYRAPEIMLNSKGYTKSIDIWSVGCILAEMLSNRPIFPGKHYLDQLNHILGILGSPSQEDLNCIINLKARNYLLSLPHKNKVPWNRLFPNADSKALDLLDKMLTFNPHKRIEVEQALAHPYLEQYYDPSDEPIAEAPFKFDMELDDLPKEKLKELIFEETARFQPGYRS

On to “MAPK phosphothreonine lyase OspF of Shigella flexneri, expressed from pGB4 as a fusion to TEM-1 (from UniProt Q8VSP9 1-239)”, for which the decrease in p-Erk percentages of live t-Erk positive T cells (flow cytometry) after infection with E. coli TOP10 pGB4 was greater than 60%.
